Laboratory results reported in the supplement of paper PMC9732359.
± gives the uncertainty stated by the source.

Assay: protein stability index of a GFP-peptide fusion (yeast GPS) (PSI 1-4); higher = more stable; sorted into four equal gates, so the index is relative within each strain
How it was run: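 Mid-log yeast cultures in leucine-free medium, carrying a pooled plasmid library, were sorted into four equal gates by their GFP/Cherry fluorescence ratio. Each plasmid expressed Cherry along with GFP fused upstream of a tiled 17-residue yeast protein peptide. Plasmids recovered from each gate were PCR-amplified and Illumina-sequenced, with reads assigned to strains by barcodes. The protein stability index was obtained by summing each gate's read frequency weighted by its gate number.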

Row | Sequence | protein stability index (doa10∆) | protein stability index (pdr5∆) | protein stability index (san1∆) | protein stability index (ubr1∆)
1 | EIIFLGAQIVSKQIFTH [ARP9] | 1.22 ± 0.1 | 1.33 ± 0.075 | 1.14 ± 0.14 | 1.25 ± 0.036
2 | IDRKVEFSLPDLEGRAN [RPT1] | 3.15 ± 0.097 | 3.37 ± 0.1 | 3.08 ± 0.17 | 3.18 ± 0.1
3 | ISNYNTKYTDDMATGSN [SRB8] | 3.04 ± 0.1 | 2.52 ± 0.11 | 3.21 ± 0.058 | 2.94 ± 0.085
4 | VNGRTKSNTIPVTSIPS [GAL11] | 2.9 ± 0.072 | 2.87 ± 0.11 | 2.99 ± 0.077 | 2.95 ± 0.079
5 | RNILHNTVPQVTNFNST [SRB5] | 1.95 ± 0.056 | 2.87 ± 0.05 | 1.92 ± 0.052 | 2.44 ± 0.035
6 | ASLALAHVFVGTCNGDI [RPN1] | 2.48 ± 0.059 | 2.61 ± 0.054 | 2.43 ± 0.077 | 2.58 ± 0.074
7 | VVNSNFAKEHNATVNLA [YJR042W/NUP85] | 2.82 ± 0.1 | 2.32 ± 0.12 | 2.75 ± 0.078 | 2.67 ± 0.13
8 | NRTKSTTIKNIDILNRT [SMC4] | 2.15 ± 0.046 | 2.55 ± 0.043 | 2.38 ± 0.062 | 2.53 ± 0.041
9 | VLKKPNRAMEYDALLSI [RET1] | – | 2.33 ± 0.19 | 1.69 ± 0.28 | –
10 | NGGVGVDVELITSINVE [FAS2] | 2.93 ± 0.051 | 3.18 ± 0.056 | 3.11 ± 0.05 | 3.13 ± 0.05
11 | TEHSKVTRFDEKQIEEL [SRB6] | 3.2 ± 0.14 | 3.26 ± 0.086 | 3.11 ± 0.081 | 3.26 ± 0.07
12 | HIKFSAGTEANAVSFDT [SRB4] | 1.98 ± 0.068 | 2.16 ± 0.055 | 2.66 ± 0.052 | 2.21 ± 0.04
13 | PFFARFKLRIQTTEGYD [RPB11] | – | 1.37 ± 0.12 | 1.37 ± 0.26 | –
14 | DLTRVYKAISAQADKQD [FAS2] | 1.54 ± 0.054 | 1.72 ± 0.049 | 1.74 ± 0.1 | 1.75 ± 0.044
15 | NDRESVLTNIEVYRTSL [SMC3] | 2.94 ± 0.13 | 3.21 ± 0.15 | 3.05 ± 0.12 | 2.97 ± 0.081
16 | VGGTTSISGFKEALLGQ [ARP9] | 2.67 ± 0.087 | 2.53 ± 0.053 | 2.51 ± 0.048 | 2.81 ± 0.039
17 | NKVHETSSKSSSLSAII [YDL088C/ASM4] | 2.67 ± 0.044 | 2.83 ± 0.053 | 2.81 ± 0.054 | 2.8 ± 0.035
18 | QRRVLLSAPLSKELRAQ [RPL26A] | 2.65 ± 0.073 | 2.43 ± 0.078 | 2.62 ± 0.08 | 2.39 ± 0.063
19 | IPLGKNVVVKWQGKPVF [RIP1] | 3.36 ± 0.26 | – | 3.42 ± 0.07 | 2.96 ± 0.26
20 | PNSNVELAGGNASLTIE [SMC1] | 2.91 ± 0.091 | 3.06 ± 0.2 | 2.95 ± 0.071 | 3.04 ± 0.27
21 | LFGENDTSTQAYEEEEE [NUT1] | 3.34 ± 0.09 | 3.41 ± 0.095 | 3.5 ± 0.057 | 3.34 ± 0.075
22 | PISKHSKQAIYTRATAS [RPS25A] | 1.86 ± 0.055 | 1.86 ± 0.044 | 1.64 ± 0.08 | 1.81 ± 0.038
23 | ERLKQLTPNEIKELEHL [SWP82] | 2.83 ± 0.064 | 2.84 ± 0.083 | 2.73 ± 0.049 | 2.7 ± 0.054
24 | TTLNEMFRYKTNLYKLK [PUP3] | 3.06 ± 0.14 | 2.66 ± 0.11 | 1.76 ± 0.13 | 2.08 ± 0.1
25 | LKEYQSKIIVFPRDGKA [RPL13B] | 2.95 ± 0.082 | 3.17 ± 0.072 | 3.22 ± 0.048 | 3.17 ± 0.054
26 | PKFDVGALMALHGEGSG [RPS1A] | 2.01 ± 0.17 | 2.26 ± 0.092 | 2.23 ± 0.16 | 1.57 ± 0.089
27 | MSREGFQIPTNLDAAAA [RPC10] | 1.28 ± 0.1 | 1.08 ± 0.082 | 1.35 ± 0.16 | 1.16 ± 0.2

Row | Sequence | protein stability index (doa10∆) | protein stability index (pdr5∆) | protein stability index (san1∆) | protein stability index (ubr1∆)
28 | VLRIPEEYLDANVFRLE [MTW1] | 3.34 ± 0.1 | 3.44 ± 0.097 | 3.19 ± 0.072 | 3.23 ± 0.053
29 | HLRVRVHPFHVLRINKM [RPL10] | 1.12 ± 0.09 | 1.21 ± 0.072 | 1.2 ± 0.087 | 1.27 ± 0.08
30 | VQSGQIYINKSVPTNSA [RET1] | 3.29 ± 0.14 | 3.32 ± 0.082 | 3.35 ± 0.091 | 3.33 ± 0.086
31 | LLNDECTESTRENALYD [SNF2] | 3.39 ± 0.2 | 3.07 ± 0.15 | 3.31 ± 0.071 | 3.69 ± 0.15
32 | IPYAAKLLFQELMAMNI [RPB2] | 1.64 ± 0.13 | 1.66 ± 0.098 | 1.64 ± 0.29 | 1.55 ± 0.055
33 | SATVKTSDLLGSHLSET [ECM29] | 2.67 ± 0.071 | 2.98 ± 0.085 | 2.94 ± 0.095 | 2.86 ± 0.076
34 | HGTYFLDNMTYSSVAGT [RRP4] | 2.21 ± 0.051 | 2.3 ± 0.043 | 2.45 ± 0.062 | 1.72 ± 0.034
35 | LQAQLDYLNAELGEFFV [FAS2] | 3.06 ± 0.18 | – | 2.94 ± 0.17 | 3.18 ± 0.16
36 | LPRYQELTKEEAMYKLQ [SMC3] | 3.02 ± 0.12 | 3.18 ± 0.087 | 3.43 ± 0.092 | 3.04 ± 0.073
37 | ILYSFKLSGKLLKEEKI [YML103C/NUP188] | 1.4 ± 0.059 | 1.6 ± 0.063 | 2.11 ± 0.1 | 2.49 ± 0.1
38 | IGLIALSATGTRSAKKM [YJR042W/NUP85] | – | – | 3 ± 0.15 | –
39 | AHRIMLTNILRMMGCVK [FAS2] | 1.86 ± 0.061 | 1.87 ± 0.06 | 1.9 ± 0.12 | 2.41 ± 0.19
40 | RLQAANSMEYTGKITKM [CDC53] | 2.99 ± 0.12 | 2.62 ± 0.14 | 2.52 ± 0.094 | 2.73 ± 0.064
41 | FTRIFLPIYDSLMSSQN [SIR3] | 2.24 ± 0.045 | 2.05 ± 0.038 | 1.99 ± 0.074 | 2.21 ± 0.037
42 | TGESEESSSEDDYEDQD [IRR1] | 3.5 ± 0.17 | 3.34 ± 0.16 | – | 3.57 ± 0.26
43 | VSTKMHRTIVIRRAYLH [RPS11A] | 1.37 ± 0.047 | 1.14 ± 0.054 | 1.54 ± 0.087 | 1.12 ± 0.033
44 | DNETKAMLINLILRDFL [RPN3] | 2.55 ± 0.095 | 2.66 ± 0.087 | 2.58 ± 0.069 | 2.81 ± 0.075
45 | DKDSEELDSKTRKILEI [MED4] | 2.98 ± 0.093 | 2.65 ± 0.091 | 3.11 ± 0.061 | 2.98 ± 0.064
46 | STSKFESQYPIVTEQPS [SWP82] | 2.41 ± 0.041 | 2.58 ± 0.046 | 2.41 ± 0.054 | 2.5 ± 0.04
47 | AICRNHIMEPCIECQPK [HRT1] | 2.26 ± 0.081 | 3.23 ± 0.13 | 2.17 ± 0.094 | 2.67 ± 0.074
48 | SQLKKTKAQQKTAEQIA [RPL7B] | 2.9 ± 0.085 | 2.92 ± 0.11 | 2.95 ± 0.067 | 2.86 ± 0.048
49 | MTMQVAVPRDELGRSNY [FAS1] | 2.7 ± 0.085 | 3 ± 0.11 | 2.99 ± 0.047 | 2.99 ± 0.092
50 | SHFDYNTLEFIIEQLSI [YCG1] | 2.48 ± 0.078 | 2.62 ± 0.12 | 2.18 ± 0.14 | 2.37 ± 0.086
51 | IPISSETTIDDLPISST [SMC1] | 2.68 ± 0.047 | 2.72 ± 0.061 | 2.68 ± 0.047 | 2.99 ± 0.041
52 | LLISYGVSIENENKVII [SRB4] | 2.1 ± 0.096 | 2.36 ± 0.14 | 3.13 ± 0.092 | 2.93 ± 0.12
53 | MQANTNALRRNLLKDEG [SSN3] | 2.94 ± 0.11 | 3.1 ± 0.25 | 2.98 ± 0.21 | 3.2 ± 0.27
54 | ESRAQNVFGQDNEDSDN [SWI3] | 3.24 ± 0.1 | 3.16 ± 0.075 | 3.33 ± 0.048 | 3.2 ± 0.052
